In patent US6399321B1 (National Research Council of Canada, priority 1999, dated 2002):

Columns and labels:
acid phosphatase = assay: Glucosylation of purified acid phosphatase by wild-type and mutant RUGT; format: biochemical, Saccharomyces cerevisiae; details: purified acid phosphatase as substrate
Procedure: Based on sequence alignments with other nucleoside diphosphate glycosyltransferases, four independent RUGT mutants D1334A, D1336A, Q1429A and N1433A were designed, amplified by PCR, cloned and sequenced to confirm the presence of diagnostic PstI, BsrBI, XbaI and NaeI sites respectively (FIG. 8).
Acid phosphatase was the major substrate glycoprotein used to determine RUGT activity in this study. RNase B was prepared as described elsewhere (Zapun, 1998). Soybean agglutinin (Sigma) was denatured by heating at 100° C. for 15 minutes. Bovine thyroglobulin (Sigma) was denatured with 8M urea and dialyzed against ddH2O. […] Reactions were either analyzed by SDS-PAGE followed by fluorography using Amplify (Amersham Life Science Inc.) or precipitated with ice-cold 10% trichloroacetic acid (TCA), washed twice with TCA and the pellets resuspended in 50 μl 1M Tris-HCl pH 8.0 before counting in a beta counter to quantitate the incorporation of ^3H-glucose in acid phosphatase.

RUGT [1] = target: T1, RUGT (Rattus norvegicus, UniProt Q9JLA3); assay: Glucosyltransferase assay: incorporation of 3H-glucose in glycoprotein acceptor-substrates by RUGT; format: biochemical; details: for RUGT activity towards denatured versus native substrate: reduced unfolded, heat-treated or urea-treated versus native protein
T1 construct: honeybee melittin signal peptide (21 aa, replaces the first 18 aa of RUGT) (N, cleaved yes); made in house; host or cells: Sf9 insect cells, baculovirus (pFastBac1); purified from culture medium
T1 sequence (Q9JLA3 43-1547 limits assumed): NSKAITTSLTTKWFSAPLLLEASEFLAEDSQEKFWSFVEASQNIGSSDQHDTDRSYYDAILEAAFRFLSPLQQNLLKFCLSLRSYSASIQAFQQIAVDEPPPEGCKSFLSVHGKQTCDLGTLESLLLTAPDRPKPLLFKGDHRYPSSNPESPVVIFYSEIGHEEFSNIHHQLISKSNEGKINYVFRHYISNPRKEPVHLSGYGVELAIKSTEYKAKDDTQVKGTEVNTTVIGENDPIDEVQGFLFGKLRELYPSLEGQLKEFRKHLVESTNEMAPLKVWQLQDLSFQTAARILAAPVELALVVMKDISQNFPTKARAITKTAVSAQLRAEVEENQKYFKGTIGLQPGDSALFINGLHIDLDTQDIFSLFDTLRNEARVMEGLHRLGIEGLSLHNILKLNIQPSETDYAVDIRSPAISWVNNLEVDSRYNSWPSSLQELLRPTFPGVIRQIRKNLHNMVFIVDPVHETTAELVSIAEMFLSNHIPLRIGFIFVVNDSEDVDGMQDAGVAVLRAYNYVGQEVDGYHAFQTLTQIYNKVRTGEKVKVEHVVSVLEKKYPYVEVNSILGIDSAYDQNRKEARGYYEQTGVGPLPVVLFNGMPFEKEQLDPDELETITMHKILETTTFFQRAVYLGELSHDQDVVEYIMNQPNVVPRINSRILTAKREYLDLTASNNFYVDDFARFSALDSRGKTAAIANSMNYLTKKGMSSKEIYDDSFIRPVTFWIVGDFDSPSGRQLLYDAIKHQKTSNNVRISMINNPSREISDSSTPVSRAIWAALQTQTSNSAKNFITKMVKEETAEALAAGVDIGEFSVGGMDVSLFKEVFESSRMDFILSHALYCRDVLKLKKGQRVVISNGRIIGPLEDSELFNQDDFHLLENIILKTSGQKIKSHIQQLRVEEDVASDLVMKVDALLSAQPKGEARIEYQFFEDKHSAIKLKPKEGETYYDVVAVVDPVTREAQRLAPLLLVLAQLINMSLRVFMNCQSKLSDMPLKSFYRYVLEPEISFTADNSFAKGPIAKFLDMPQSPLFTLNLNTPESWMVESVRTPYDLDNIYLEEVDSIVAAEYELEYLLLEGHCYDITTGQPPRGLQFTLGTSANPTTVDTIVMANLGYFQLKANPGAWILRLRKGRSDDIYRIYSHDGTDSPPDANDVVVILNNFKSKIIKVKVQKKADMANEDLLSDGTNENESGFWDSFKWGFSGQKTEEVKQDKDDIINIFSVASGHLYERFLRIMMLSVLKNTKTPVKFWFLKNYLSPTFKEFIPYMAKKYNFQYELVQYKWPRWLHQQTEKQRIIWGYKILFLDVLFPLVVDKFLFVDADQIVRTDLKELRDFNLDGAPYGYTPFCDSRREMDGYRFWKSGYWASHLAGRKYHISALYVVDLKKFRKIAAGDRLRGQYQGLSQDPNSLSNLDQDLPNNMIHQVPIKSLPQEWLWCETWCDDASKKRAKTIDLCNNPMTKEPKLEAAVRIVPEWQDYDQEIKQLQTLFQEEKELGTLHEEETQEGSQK
Procedure: Acid phosphatase was the major substrate glycoprotein used to determine RUGT activity in this study. RNase B was prepared as described elsewhere (Zapun, 1998). Soybean agglutinin (Sigma) was denatured by heating at 100° C. for 15 minutes. Bovine thyroglobulin (Sigma) was denatured with 8M urea and dialyzed against ddH2O. […] Amersham Life Science Inc.) and incubated at 37° C. for 2 hours. Reactions were either analyzed by SDS-PAGE followed by fluorography using Amplify (Amersham Life Science Inc.) or precipitated with ice-cold 10% trichloroacetic acid (TCA), washed twice with TCA and the pellets resuspended in 50 μl 1M Tris-HCl pH 8.0 before counting in a beta counter to quantitate the incorporation of ^3H-glucose in acid phosphatase.

RUGT [2] = target: T1, RUGT; assay: Kinetics measurements: Km of UDP-glucose and acid phosphatase for RUGT; format: biochemical; details: in the presence of 5 μM UDP-glucose; read-out: apparent Km for acid phosphatase
Procedure: Acid phosphatase was the major substrate glycoprotein used to determine RUGT activity in this study. […] Soybean agglutinin (Sigma) was denatured by heating at 100° C. for 15 minutes. Bovine thyroglobulin (Sigma) was denatured with 8M urea and dialyzed against ddH2O. […] Reactions were either analyzed by SDS-PAGE followed by fluorography using Amplify (Amersham Life Science Inc.) or precipitated with ice-cold 10% trichloroacetic acid (TCA), washed twice with TCA and the pellets resuspended in 50 μl 1M Tris-HCl pH 8.0 before counting in a beta counter to quantitate the incorporation of ^3H-glucose in acid phosphatase.
Glucosylation reactions were incubated at 37° C. and TCA precipitated at various times up to 120 minutes to determine the rate of incorporation of ^3H-glucose in acid phosphatase.

Row | Molecule | activity relative to the wild-type enzyme (incorporation of 3H-glucose) (acid phosphatase) | RUGT activity towards denatured versus native substrate (RUGT [1]) | further results
1 | D1336A: recombinant rat UGGT (RUGT) mutant, D1336 mutated to alanine | no activity at all |  | 
2 | N1433A: recombinant rat UGGT (RUGT) mutant, N1433 mutated to alanine | approximately 2% |  | 
3 | soybean agglutinin: soybean agglutinin (Sigma), denatured by heating at 100° C.; acceptor substrate [reference compound] |  | better substrates than the native proteins | 
4 | Q1429A: recombinant rat UGGT (RUGT) mutant, Q1429 mutated to alanine | ~20% |  | 
5 | D1334A: recombinant rat UGGT (RUGT) mutant, D1334 mutated to alanine | no activity at all |  | 
6 | bovine thyroglobulin: bovine thyroglobulin (Sigma), denatured with 8M urea; acceptor substrate [reference compound] |  | better substrates than the native proteins | 
7 | acid phosphatase: yeast acid phosphatase purified from S. cerevisiae DT111, with asparagine-linked [GlcNAc]2-(Man)9 glycans; UGGT acceptor substrate (protein) GTIPLGKLADVDKIGTQKDIFPFLGGAGPYYSFPGDYGISRDLPEGCEMKQLQMVGRHGERYPTVSLAKTIKSTWYKLSNYTRQFNGSLSFLNDDYEFFIRDDDDLEMETTFANSDDVLNPYTGEMNAKRHARDFLAQYGYMVENQTSFAVFTSNSKRCHDTAQYFIDGLGDQFNITLQTVSEAESAGANTLSACNSCPAWDYDANDDIVNEYDTTYLDDIAKRLNKENKGLNLTSTDASTLFSWCAFEVNAKGYSDVCDIFTKDELVHYSYYQDLHTYYHEGPGYDIIKSVGSNLFNASVKLLKQSEIQDQKVWLSFTHDTDILNFLTTAGIIDDKNNLTAEYVPFMGNTFHRSWYVPQGARVYTEKFQCSNDTYVRYVINDAVVPIETCSTGPGFSCEINDFYDYAEKRVAGTDFLKVCNVSSVSNSTELTFYWDWNTTHYNASLLRQ |  |  | incorporation of 3H-glucose on a molar basis relative to RNase B (RUGT [1]; assuming MW of 14 kDa for RNase B): 130 ×; incorporation of 3H-glucose on a molar basis relative to SBA (RUGT [1]; assuming MW of 31 kDa for SBA): 100 ×; incorporation of 3H-glucose on a molar basis relative to Tg (RUGT [1]; assuming MW of 303 kDa for Tg): 4 times; Km (RUGT [2]): 0.3 µM
8 | RNase B: bovine pancreatic ribonuclease B, glycoprotein acceptor substrate (protein, UniProt P61823 27-150, looked up, glycoform B, bovine pancreatic ribonuclease B, glycoprotein acceptor substrate) Ribonuclease pancreatic: KETAAAKFERQHMDSSTSAASSSNYCNQMMKSRNLTKDRCKPVNTFVHESLADVQAVCSQKNVACKNGQTNCYQSYSTMSITDCRETGSSKYPNCAYKTTQANKHIIVACEGNPYVPVHFDASV |  | greater activity towards reduced unfolded RNase B than towards the native protein | 
